Consider one substance from patent publication US20250333515A1.

In the test the target is biotinylated recombinant human CLL-1 extracellular domain protein, isoform with lysine at amino acid position 244 (human) (UniProt Q5QGZ9). In words: Exp 1 (= Octet, CLL-1-K244 of FIG. 12B); Exp 2: ND. On the technique in general: In BLI a coated tip is dipped into the sample, and binding shifts an interference pattern.
Chain of biotinylated recombinant human CLL-1 extracellular domain protein, isoform with lysine at amino acid position 244 (human) (Q5QGZ9 65-265): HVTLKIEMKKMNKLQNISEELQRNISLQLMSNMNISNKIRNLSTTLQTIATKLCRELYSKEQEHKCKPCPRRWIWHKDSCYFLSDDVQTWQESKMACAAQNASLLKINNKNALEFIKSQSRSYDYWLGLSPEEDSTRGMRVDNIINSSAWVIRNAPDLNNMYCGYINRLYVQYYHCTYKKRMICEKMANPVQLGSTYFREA

A word on the Kd: it is the equilibrium constant for the complex coming apart. For + Control, the Kd is 127 pM.
